From US20160297884A1 (Pfizer, published 2016) come the findings set out here.

The target in experiment [1] is T1, Human BCMA (human, UniProt Q02223 1-54, limits assumed).
T1 construct: Soluble analyte in SPR; construct not described; also called huBCMA; B-cell maturation antigen
T1 sequence (looked up): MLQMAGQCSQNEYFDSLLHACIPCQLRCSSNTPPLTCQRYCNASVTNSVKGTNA
Nature of the experiment: SPR, IgG immobilised, 25 C. Here is the method:
(§1) All experiments were performed on a Bio-Rad Proteon XPR36 surface Plasmon resonance biosensor (Bio-Rad, Hercules, Calif.). […] The analysis temperature for the immobilization was 25° C. and the running buffer was HBS-T+(10 mM HEPES, 150 mM NaCl, 0.05% Tween-20, pH 7.4). Channels were activated in the analyte (horizontal) direction by injecting a mixture of 1 mM ECD and 0.25 mM NHS for 3 minutes at a flow rate of 30 μL/min. IgGs were immobilized on the activated spots by injecting them in the ligand (vertical) direction at 20 μg/mL in 10 mM Acetate pH 4.5 buffer for 1.5 minutes at […]. The activated surfaces were blocked by injecting 1M ethanolamine, pH 8.5 in the analyte direction for 3 minutes at 30 μL/min.
(§2) The analysis temperature for the BCMA binding analysis was 37° C. or 25° C. in a running buffer of HBS-T+, supplemented with 1 mg/mL BSA. A kinetic titration method was employed for the interaction analysis as described in Abdiche, et al. Human BCMA (huBCMA) or cynomolgus monkey BCMA (cyBCMA) analyte was injected in the analyte direction using a series of injections from low to high concentration. The concentrations used were 0.08 nM, 0.4 nM, 2 nM, 10 nM and 50 nM (a 5-membered series, with a 5-fold dilution factor and top concentration of 50 nM). The association time for a given analyte dilution was two minutes. Immediately after the 50 nM BCMA injection, dissociation was monitored for 2 hours.
(§3) The sensorgrams were double-referenced and fit to a 1:1 Langmuir with mass transport kinetic titration model in BIAevaluation Software version 4.1.1 (GE Lifesciences, Piscataway, N.J.).
For orientation: In SPR one partner is held on a chip, and binding of the other changes the refractive index at the surface.

Experiment [2] concerns the target T2, cynomolgus monkey BCMA (cynomolgus monkey, UniProt A0A2K5UD97 1-53).
T2 construct: Soluble analyte in SPR; construct not described; also called cyBCMA; Cyno BCMA
Briefly: SPR, IgG immobilised, 25 C. How it is done: as §1, §2, §3

In experiment [3] the target is T1, Human BCMA. Briefly: SPR, IgG immobilised, 37 C. A digest of the protocol:
(§4)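 Rate constants come from a 1:1 Langmuir model including mass transport, fitted to double-referenced sensorgrams. Analyte was human or cynomolgus BCMA in five rising concentrations up to 50 nM over amine-coupled IgG; runs were at 25° C or 37° C.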

Experiment [4] deals with T2, cynomolgus monkey BCMA. Briefly: SPR, IgG immobilised, 37 C. A digest of the protocol: as §4
Experiment [5] has as its target BCMA (analyte of Table 4A). Briefly: SPR (Bio-Rad ProteOn XPR36), IgG amine-coupled, BCMA as analyte, kinetic titration; species of BCMA and temperature not stated for Table 4A. How it is done: as §1, §2, §3

BCMA (analyte of Table 4A), sequence (Q02223 whole entry): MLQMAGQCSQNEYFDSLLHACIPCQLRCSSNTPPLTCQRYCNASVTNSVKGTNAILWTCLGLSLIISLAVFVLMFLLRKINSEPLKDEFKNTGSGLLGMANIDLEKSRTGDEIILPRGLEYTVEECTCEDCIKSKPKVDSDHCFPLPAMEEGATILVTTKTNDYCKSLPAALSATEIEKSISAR
T2 sequence (A0A2K5UD97 entry or part of it): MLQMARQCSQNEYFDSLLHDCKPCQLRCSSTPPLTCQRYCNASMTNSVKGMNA

B1: L3.PY/P6E01 (antibody, V domains shown)
VH: EVQLLESGGGLVQPGGSLRLSCAASGFTFGSYAMTWVRQAPGKGLEWVSAISGSGGNTFYADSVKGRFTISRDNSKNTLYLQMNSLRAEDTAVYYCARVSPIASGMDYWGQGTLVTVSS
VL: EIVLTQSPGTLSLSPGERATLSCRASQSVSSSYLAWYQQKPGQAPRLLIYGASSRATGIPDRFSGSGSGTDFTLTISRLEPEDFAVYYCQHYPYPPSFTFGQGTKVEIK
notes: IgG
As for B1, in the experiment with Human BCMA [1], the affinity, expressed as Kd, was 0.32 nM; the “T ½” value stood at 50.7 min; the off-rate constant (koff) (in general, the rate constant with which the complex falls apart) was determined as 0.000228 s⁻¹; the on-rate (kon) – broadly, the rate constant with which the complex forms – was 712000 M⁻¹ s⁻¹. Further, in the experiment with cynomolgus monkey BCMA [2], the affinity, expressed as Kd, was 3.4 nM; the “T ½” value worked out at 3.9 min; the koff worked out at 0.00293 s⁻¹; the on-rate (kon) was 855000 M⁻¹ s⁻¹. Also, in the experiment with Human BCMA [3], binding was put at a Kd of 0.74 nM, the “T ½” value was 5.91 min, the dissociation rate constant (koff) turned out to be 0.00196 s⁻¹ and the kon was determined as 2.65e+06 M⁻¹ s⁻¹. In the experiment with cynomolgus monkey BCMA [4], binding was put at a Kd of 5.96 nM, the “T ½” value is 0.88 min, the off-rate (koff) was found to be 0.0131 s⁻¹ and the on-rate constant (kon) was 2.2e+06 M⁻¹ s⁻¹.

B2: L3.PY/H3.TAQ (antibody, V domains shown)
VH: EVQLLESGGGLVQPGGSLRLSCAASGFTFGSYAMTWVRQAPGKGLEWVSAISGSGGNTFYADSVKGRFTISRDNSKNTLYLQMNSLRAEDTAVYYCTRVSPIAAQMDYWGQGTLVTVSS
VL: EIVLTQSPGTLSLSPGERATLSCRASQSVSSSYLAWYQQKPGQAPRLLIYGASSRATGIPDRFSGSGSGTDFTLTISRLEPEDFAVYYCQHYPYPPSFTFGQGTKVEIK
notes: Tested as IgG
With B2, in experiment [5], binding was put at a Kd of 0.053 nM, the off-rate constant (koff) amounted to 0.00014 s⁻¹, the kon is 2.6e+06 M⁻¹ s⁻¹ and the t1/2 stood at 84 min.

B3: L1.LGF/L3.PY/H3.AQ (antibody, V domains shown)
VH: EVQLLESGGGLVQPGGSLRLSCAASGFTFGSYAMTWVRQAPGKGLEWVSAISGSGGNTFYADSVKGRFTISRDNSKNTLYLQMNSLRAEDTAVYYCARVSPIAAQMDYWGQGTLVTVSS
VL: EIVLTQSPGTLSLSPGERATLSCRASQSLGSFYLAWYQQKPGQAPRLLIYGASSRATGIPDRFSGSGSGTDFTLTISRLEPEDFAVYYCQHYPYPPSFTFGQGTKVEIK
notes: IgG
B3: in the experiment with Human BCMA [1], the Kd (commonly the constant that tells how readily two partners part at equilibrium) was determined as 0.95 nM, the “T ½” value came to 13 min, the off-rate constant (koff) was 0.000886 s⁻¹ and the on-rate (kon) was 931000 M⁻¹ s⁻¹. In addition, in the experiment with cynomolgus monkey BCMA [2], the Kd was determined as 4.8 nM, the “T ½” value is 2.4 min, the koff is 0.00477 s⁻¹ and the kon came to 1e+06 M⁻¹ s⁻¹.

B4: L3.KW/P6E01 (antibody, V domains shown)
VH: EVQLLESGGGLVQPGGSLRLSCAASGFTFGSYAMTWVRQAPGKGLEWVSAISGSGGNTFYADSVKGRFTISRDNSKNTLYLQMNSLRAEDTAVYYCARVSPIASGMDYWGQGTLVTVSS
VL: EIVLTQSPGTLSLSPGERATLSCRASQSVSSSYLAWYQQKPGQAPRLLIYGASSRATGIPDRFSGSGSGTDFTLTISRLEPEDFAVYYCKHYGWPPSFTFGQGTKVEIK
notes: IgG
In the case of B4, in the experiment with Human BCMA [1], the dissociation constant Kd worked out at 0.43 nM, the “T ½” value amounted to 36.7 min, the koff turned out to be 0.000315 s⁻¹ and the on-rate (kon) is 740000 M⁻¹ s⁻¹. Besides, in the experiment with cynomolgus monkey BCMA [2], binding was characterised by a dissociation constant (Kd) of 3.4 nM, the “T ½” value was 4.5 min, the koff came out at 0.00257 s⁻¹ and the kon is 763000 M⁻¹ s⁻¹.

B5: L1.LGF/L3.NY/P6E01 (antibody, V domains shown)
VH: EVQLLESGGGLVQPGGSLRLSCAASGFTFGSYAMTWVRQAPGKGLEWVSAISGSGGNTFYADSVKGRFTISRDNSKNTLYLQMNSLRAEDTAVYYCARVSPIASGMDYWGQGTLVTVSS
VL: EIVLTQSPGTLSLSPGERATLSCRASQSLGSFYLAWYQQKPGQAPRLLIYGASSRATGIPDRFSGSGSGTDFTLTISRLEPEDFAVYYCQHYNYPPSFTFGQGTKVEIK
notes: IgG
Take B5: in the experiment with Human BCMA [1], the dissociation constant Kd worked out at 3.32 nM, the “T ½” value is 2.63 min, the off-rate constant (koff) is 0.0044 s⁻¹ and the on-rate constant (kon) worked out at 1.33e+06 M⁻¹ s⁻¹. Moreover, in the experiment with cynomolgus monkey BCMA [2], binding was put at a Kd of 11.4 nM, the “T ½” value stood at 1.1 min, the koff came to 0.0105 s⁻¹ and the kon was determined as 920000 M⁻¹ s⁻¹.

B6: L1.LGF/L3.NY/H3.AQ (antibody, V domains shown)
VH: EVQLLESGGGLVQPGGSLRLSCAASGFTFGSYAMTWVRQAPGKGLEWVSAISGSGGNTFYADSVKGRFTISRDNSKNTLYLQMNSLRAEDTAVYYCARVSPIAAQMDYWGQGTLVTVSS
VL: EIVLTQSPGTLSLSPGERATLSCRASQSLGSFYLAWYQQKPGQAPRLLIYGASSRATGIPDRFSGSGSGTDFTLTISRLEPEDFAVYYCQHYNYPPSFTFGQGTKVEIK
notes: IgG
B6: in the experiment with Human BCMA [1], the affinity, expressed as Kd, was 0.45 nM; the “T ½” value was found to be 38.6 min; the koff turned out to be 0.000299 s⁻¹; the kon is 666000 M⁻¹ s⁻¹. Also, in the experiment with cynomolgus monkey BCMA [2], binding was characterised by a dissociation constant (Kd) of 2 nM, the “T ½” value was 7.8 min, the off-rate (koff) is 0.00148 s⁻¹ and the kon was 751000 M⁻¹ s⁻¹.

B7: L3.NY/P6E01 (antibody, V domains shown)
VH: EVQLLESGGGLVQPGGSLRLSCAASGFTFGSYAMTWVRQAPGKGLEWVSAISGSGGNTFYADSVKGRFTISRDNSKNTLYLQMNSLRAEDTAVYYCARVSPIASGMDYWGQGTLVTVSS
VL: EIVLTQSPGTLSLSPGERATLSCRASQSVSSSYLAWYQQKPGQAPRLLIYGASSRATGIPDRFSGSGSGTDFTLTISRLEPEDFAVYYCQHYNYPPSFTFGQGTKVEIK
notes: IgG
With B7, in the experiment with Human BCMA [1], the dissociation constant Kd was found to be 0.44 nM, the “T ½” value came out at 30.1 min, the koff is 0.000384 s⁻¹ and the kon was 876000 M⁻¹ s⁻¹. In the experiment with cynomolgus monkey BCMA [2], binding was characterised by a dissociation constant (Kd) of 2.8 nM, the “T ½” value turned out to be 4 min, the dissociation rate constant (koff) amounted to 0.00287 s⁻¹ and the association rate constant (kon) was 1.01e+06 M⁻¹ s⁻¹.

B8: L1.LGF/L3.PY/H3.AP (antibody, V domains shown)
VH: EVQLLESGGGLVQPGGSLRLSCAASGFTFGSYAMTWVRQAPGKGLEWVSAISGSGGNTFYADSVKGRFTISRDNSKNTLYLQMNSLRAEDTAVYYCARVSPIAAPMDYWGQGTLVTVSS
VL: EIVLTQSPGTLSLSPGERATLSCRASQSLGSFYLAWYQQKPGQAPRLLIYGASSRATGIPDRFSGSGSGTDFTLTISRLEPEDFAVYYCQHYPYPPSFTFGQGTKVEIK
notes: IgG
On to B8, for which, in the experiment with Human BCMA [1], the Kd was 2.12 nM, the “T ½” value came to 11.9 min, the off-rate (koff) is 0.000969 s⁻¹ and the association rate constant (kon) came to 457000 M⁻¹ s⁻¹. Besides, in the experiment with cynomolgus monkey BCMA [2], binding was put at a Kd of 35.8 nM, the “T ½” value amounted to 0.9 min, the off-rate (koff) amounted to 0.013 s⁻¹ and the on-rate (kon) is 364000 M⁻¹ s⁻¹.

B9: A02_Rd4_6nM_C01 (antibody, V domains shown)
VH: EVQLLESGGGLVQPGGSLRLSCAASGFTFSSYAMNWVRQAPGKGLEWVSAITASGGSTYYADSVKGRFTISRDNSKNTLYLQMNSLRAEDTAVYYCARYWPMSLWGQGTLVTVSS
VL: EIVLTQSPGTLSLSPGERATLSCRASQSVSAYYLAWYQQKPGQAPRLLMYDASIRATGIPDRFSGSGSGTDFTLTISRLEPEDFAVYYCQQYERWPLTFGQGTKVEIK
In experiment [5], B9 had a dissociation constant (Kd) of 0.024 nM, a koff of 2.8e-05 s⁻¹, a kon of 1.2e+06 M⁻¹ s⁻¹ and a t1/2 of 411 min.

B10: A02_Rd4_6nM_C16 (antibody, V domains shown)
VH: EVQLLESGGGLVQPGGSLRLSCAASGFTFSSYAMNWVRQAPGKGLEWVSAISDFGGSTYYADSVKGRFTISRDNSKNTLYLQMNSLRAEDTAVYYCARYWPMDIWGQGTLVTVSS
VL: EIVLTQSPGTLSLSPGERATLSCRASQSVSDLYLAWYQQKPGQAPRLLMYDASIRATGIPDRFSGSGSGTDFTLTISRLEPEDFAVYYCQQYQTWPLTFGQGTKVEIK
notes: Tested as IgG; also called P5AC16
In experiment [5], B10 showed a Kd of 0.059 nM, a koff of 6.2e-05 s⁻¹, a kon of 1.1e+06 M⁻¹ s⁻¹ and a t1/2 of 187 min.

B11: COMBO_Rd4_0.6nM_C29 (antibody, V domains shown)
VH: EVQLLESGGGLVQPGGSLRLSCAASGFTFSSYPMSWVRQAPGKGLEWVSAIGGSGGSLPYADSVKGRFTISRDNSKNTLYLQMNSLRAEDTAVYYCARYWPMDIWGQGTLVTVSS
VL: EIVLTQSPGTLSLSPGERATLSCRASQSVSSSYLAWYQQKPGQAPRLLMYDASIRATGIPDRFSGSGSGTDFTLTISRLEPEDFAVYYCQQYQSWPLTFGQGTKVEIK
notes: Tested as IgG
As to B11, in experiment [5], the Kd turned out to be 0.021 nM, the koff stood at 0.00014 s⁻¹, the kon was found to be 6.6e+06 M⁻¹ s⁻¹ and the t1/2 was determined as 83 min.
